The assay concerns the target recombinant human MIF-C80W (human). Briefly: SEC-MALS; 100 uM MIF (WT or C80W) in 20 mM phosphate buffer, with or without 100 uM PAV-174; TSKgel G2000SWXL, 0.5 mL/min, 25 C; UV 280 nm and miniDawn Treos light scattering.

As for “recombinant human MIF-C80W (natural protein)”, the stoichiometry N is 3.

By stoichiometry N is commonly meant the number of molecules, sites or subunits per partner or assembly.

Values taken from publication PMC12866179, “Oxidized MIF is an Alzheimer’s disease drug target relaying external risk factors to tau pathology” (Cell Reports Medicine, 2025).
